Data as given in patent US20150306181A1 (BOARD OF REGENTS OF THE UNIVERSITY OF NEBRASKA, published 2015).

Assays:
[1] = target: T1, mouse leptin receptor-Fc chimera (mouse; human, UniProt P48356 22-839); test: SPR (Biacore 3000), ObR-Fc captured on protein G chip, 1:1 model
T1 construct: extracellular domain; Bought from R&D Systems; Captured on a protein G sensor chip through its Fc; also called ObR-Fc; chimera leptin receptor; not shown: human Fc fragment, printed as 'human protein G Fc fragment'
T1 sequence (looked up): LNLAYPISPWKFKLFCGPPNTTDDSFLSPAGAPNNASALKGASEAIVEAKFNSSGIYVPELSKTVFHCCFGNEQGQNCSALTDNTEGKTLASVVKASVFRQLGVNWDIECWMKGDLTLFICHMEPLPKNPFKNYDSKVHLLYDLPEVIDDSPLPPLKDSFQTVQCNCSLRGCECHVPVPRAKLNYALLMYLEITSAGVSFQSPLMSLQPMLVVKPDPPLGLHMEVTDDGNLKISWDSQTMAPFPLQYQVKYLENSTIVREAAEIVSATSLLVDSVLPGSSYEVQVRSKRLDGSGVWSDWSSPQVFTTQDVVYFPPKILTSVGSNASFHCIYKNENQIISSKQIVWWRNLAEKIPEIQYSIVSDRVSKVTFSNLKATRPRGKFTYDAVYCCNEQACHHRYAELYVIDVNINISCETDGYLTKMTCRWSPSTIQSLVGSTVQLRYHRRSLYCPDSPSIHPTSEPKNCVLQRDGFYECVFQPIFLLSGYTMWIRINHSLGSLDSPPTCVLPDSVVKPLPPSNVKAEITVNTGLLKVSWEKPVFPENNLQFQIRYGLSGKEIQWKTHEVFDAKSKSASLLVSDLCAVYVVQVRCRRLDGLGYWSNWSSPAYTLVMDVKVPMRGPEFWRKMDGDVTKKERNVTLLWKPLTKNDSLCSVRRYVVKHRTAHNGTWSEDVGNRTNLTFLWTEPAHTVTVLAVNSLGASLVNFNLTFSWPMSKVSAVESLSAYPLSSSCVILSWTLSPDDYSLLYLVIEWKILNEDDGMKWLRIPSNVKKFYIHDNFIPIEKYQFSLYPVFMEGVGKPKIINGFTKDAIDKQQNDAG
Protocol: The binding affinity of leptin and its analogs was measured by surface plasma resonance (SPR) in Biacore® 3000 instrument (GE Healthcare, Piscataway, N.J.), using a method reported for leptin (Mistrik et al. (2004) Anal. Biochem., 327:271-7). Carboxymethyl dextran chip (CMS), N-hydroxysuccinimide (NHS), 1-ethyl-3-(3-dimethylaminopropyl) carbodiimide (EDC), ethanolamine-HCl, HBS-EP buffer (10 mM HEPES, 150 mM NaCl, 3 mM EDTA, 0.005% surfactant P20, pH 7.4) and protein G were all purchased from GE Healthcare. To prepare the sensor chip, protein G was immobilized on CMS (Channel A and B) by consequent injection of 1) 115 μL NHS/EDC (1:1, v/v) (to activate dextran surface); 2) 60 μL protein G (200 μg/mL, 10 mM sodium acetate buffer, pH 4.0) (to bound the surface at 2000-3000 resonance units (RU)), and 3) 75 μl of 1 M ethanolamine hydrochloride, pH 8.5 (to deactivate NHS-ester and remove electrostatically bound protein). CMS surface response was recorded by first, immobilization of ObR-Fc (0.5 μg/mL, 15 μL in HBS-EP, 5 μL/min flow rate) in channel A following 1800 s washing (to capture 100-300 RU of ObR-Fc); second, capture of leptin or leptin-Pluronic® conjugates (0-300 nM, 100 μL in HBS-EP, flow rate 20 μL/min) and dissociation (900 s) in channel A (ObR-Fc surface) and B (protein G surface); third, regeneration of a fully active protein G surface by 5 μL glycine (10 mM, pH 2.0). The data (sensorgrams in channel A) were corrected by non-specific protein G surface binding (sensorgrams in channel B) and baseline draft (sensorgrams of HBS-EP injection in channel A) which might occur due to a slow dissociation of between ObR-Fc and protein G and then fitted to a 1:1 binding model using BIA evaluation software.
TABLE 3 Kinetic constants for leptin and leptin-P85 conjugates and leptin receptor interaction. The association and dissociation rate constants kₐ and kd were determined as global fitting parameters for a 1:1 binding model. The kinetics of the interaction with leptin, the mixture of leptin and P85, Lep-(ss)-P85(1) and its reduced form, Lep-(ss)-P85(2.1) and its reduced form, Lep-(nc)-P85(2) and purified Lep-(ss)-P85(2.3) from HIC, 33 min were analyzed. The equilibrium dissociation constant KD was determined as kd/kₐ. Numbers represent averaged values from three independent measurements on the same ObR-Fc surface.

[2] = target: T1, mouse leptin receptor-Fc chimera; test: SPR, ObR-Fc captured on protein G CM5 chip, 1:1 model (Example 3)
Protocol: […] Binding affinity of leptin or leptin-POx with leptin receptor was determined by surface plasma resonance (SPR). Protein G was immobilized on CM5 sensor chip using following procedure: 1) inject 115 μL NHS/EDC mixed solution (1:1, v/v) to activate dextran surface; 2) inject 60 μL protein G (200 μg/mL in 10 mM sodium acetate buffer, pH 4.0) to bind with the activated sensor surface; 3) inject 75 μL of 1 M ethanolamine hydrochloride, pH 8.5 to deactivate NHS-ester and remove non-specifically bound protein. […] The sensorgram in channel A was corrected by non-specific surface binding (sensorgram in channel B) and baseline draft (sensorgram of HBS-EP buffer injection in channel A) and then fitted with a 1:1 binding model as provided by BIA evaluation software. The rate constant kₐ and kd, and equilibrium association constant (KA) and dissociation constant (KD) are determined.

[3] = target: T1, mouse leptin receptor-Fc chimera; test: SPR (Biacore 3000), ObR-Fc captured on protein G chip, 1:1 model, KD = kd/ka
Protocol: (§1) The binding affinity of leptin and its analogs was measured by surface plasma resonance (SPR) in Biacore® 3000 instrument (GE Healthcare, Piscataway, N.J.), using a method reported for leptin (Mistrik et al. (2004) Anal. Biochem., 327:271-7). Carboxymethyl dextran chip (CMS), N-hydroxysuccinimide (NHS), 1-ethyl-3-(3-dimethylaminopropyl) carbodiimide (EDC), ethanolamine-HCl, HBS-EP buffer (10 mM HEPES, 150 mM NaCl, 3 mM EDTA, 0.005% surfactant P20, pH 7.4) and protein G were all purchased from GE Healthcare. […] CMS surface response was recorded by first, immobilization of ObR-Fc (0.5 μg/mL, 15 μL in HBS-EP, 5 μL/min flow rate) in channel A following 1800 s washing (to capture 100-300 RU of ObR-Fc); second, capture of leptin or leptin-Pluronic® conjugates (0-300 nM, 100 μL in HBS-EP, flow rate 20 μL/min) and dissociation (900 s) in channel A (ObR-Fc surface) and B (protein G surface); third, regeneration of a fully active protein G surface by 5 μL glycine (10 mM, pH 2.0). […]
(§2) TABLE 3 Kinetic constants for leptin and leptin-P85 conjugates and leptin receptor interaction. The association and dissociation rate constants kₐ and kd were determined as global fitting parameters for a 1:1 binding model. […] The equilibrium dissociation constant KD was determined as kd/kₐ. […]

[4] = target: T1, mouse leptin receptor-Fc chimera; test: SPR, ObR-Fc captured on protein G chip; leptin in 1:1 mixture with free Pluronic P85
Description: Next, the binding of the leptin-Pluronic® conjugates with the chimera leptin receptor (ObR-Fc) was studied. ObR-Fc contains the human […] Fc fragment and the mouse ObR N-terminus that shares the same sequence as the extracellular domains of the putative leptin transporter at the BBB (ObRa) and the leptin receptor (ObRb) expressed in the brain. The Fc fragment of ObR-Fc was used to reversibly bind to protein G that was pre-immobilized onto the sensor chip. The ObR N-terminus of ObR-Fc adsorbed onto the sensor chip was used for sample detection. The SPR association and dissociation profiles were recorded for native leptin, a mixture of leptin and P85, Lep-(ss)-P85(1), Lep-(ss)-P85(2.1), Lep-(ss)-P85(2.3) (fractions purified by HIC and collected at 33 min) and Lep-(nc)-P85(2) (FIG. 8 and Table 3). […] The KD values for the N-terminal modified Lep-(nc)-P85(2), which also had low modification degree, were similar to those observed for Lep-(ss)-P85(2.1) without HIC purification.

[5] = target: T1, mouse leptin receptor-Fc chimera; test: SPR, ObR-Fc captured on protein G chip, 1:1 model; leptin in 1:1 mixture with free Pluronic P85
Protocol: as §1, §2

[6] = target: T1, mouse leptin receptor-Fc chimera; test: SPR, ObR-Fc captured on protein G chip, 1:1 model; leptin in 1:1 mixture with free Pluronic P85; leptin mixed with free P85
Protocol: as §1, §2

| Binder | koff [1] [s⁻¹] | kon [1] [M⁻¹ s⁻¹] | Kd [1] [nM] | further results |
| --- | --- | --- | --- | --- |
| Mouse leptin (ligand, UniProt P41160 22-167, looked up, Also tested as a non-covalent 1:1 mixture with free Pluronic P85 ('Leptin + P85'); Those rows use this molecule and name the mixture under assay; The preparation held monomer and dimer on SDS-PAGE; also called native leptin; mu-leptin) VPIQKVQDDTKTLIKTIVTRINDISHTQSVSAKQRVTGLDFIPGLHPILSLSKMDQTLAVYQQVLTSLPSQNVLQIANDLENLRDLLHLLAFSKSCSLPQTSGLQKPESLDGVLEASLYSTEVVALSRLQGSLQDILQQLDVSPEC | 0.000208 | 2.09e+06 |  | Ka [2]: 1.1e+09 M⁻¹; Kd [2]: 0.96 nM; koff [2]: 0.00051 s⁻¹; kon [2]: 530000 M⁻¹ s⁻¹; Kd [3]: 0.1 nM; fold decrease of binding affinity against native leptin alone [4]: ~3 fold; koff [5]: 0.000368 s⁻¹; kon [5]: 1.09e+06 M⁻¹ s⁻¹; Kd [6]: 0.337 nM |
| Lep-(ss)-P85(1) (ligand, mouse, UniProt P41160 22-167, looked up, Pluronic P85 chains on lysine amino groups through the DSP (disulfide) linker; highly modified; positions not determined, Mixture of unmodified leptin and leptin with 1 to several P85 chains) VPIQKVQDDTKTLIKTIVTRINDISHTQSVSAKQRVTGLDFIPGLHPILSLSKMDQTLAVYQQVLTSLPSQNVLQIANDLENLRDLLHLLAFSKSCSLPQTSGLQKPESLDGVLEASLYSTEVVALSRLQGSLQDILQQLDVSPEC | 0.000642 | 12000 | 57.1 |  |
| Lep-(nc)-P85(2) (ligand, mouse, UniProt P41160 22-167, looked up, one Pluronic P85 chain on the N-terminal alpha amino group by reductive amination with mono-aldehyde-P85, the rest is unmodified leptin; also called N-terminal modified Lep-(nc)-P85(2)) VPIQKVQDDTKTLIKTIVTRINDISHTQSVSAKQRVTGLDFIPGLHPILSLSKMDQTLAVYQQVLTSLPSQNVLQIANDLENLRDLLHLLAFSKSCSLPQTSGLQKPESLDGVLEASLYSTEVVALSRLQGSLQDILQQLDVSPEC | 0.000247 | 77000 | 3.8 |  |
| Lep-(ss)-P85(2.1) (ligand, mouse, UniProt P41160 22-167, looked up, Pluronic P85 chains on lysine amino groups through the DSP (disulfide) linker; lower degree of modification; positions not determined, Mixture that includes unmodified leptin) VPIQKVQDDTKTLIKTIVTRINDISHTQSVSAKQRVTGLDFIPGLHPILSLSKMDQTLAVYQQVLTSLPSQNVLQIANDLENLRDLLHLLAFSKSCSLPQTSGLQKPESLDGVLEASLYSTEVVALSRLQGSLQDILQQLDVSPEC | 0.000355 | 113000 | 3.2 |  |
| Lep-(ss)-P85(1) reduced (ligand, mouse, UniProt P41160 22-167, looked up, Pluronic P85 chains on lysine amino groups through the DSP linker, partly cleaved by 6 mM L-glutathione; a linker remainder is left on cleaved sites, Lep-(ss)-P85(1) dialysed against 6 mM L-glutathione in PBS with 20% ethanol; Some but not all P85 chains were cleaved; also called reduced form of Lep-(ss)-P85(1)) VPIQKVQDDTKTLIKTIVTRINDISHTQSVSAKQRVTGLDFIPGLHPILSLSKMDQTLAVYQQVLTSLPSQNVLQIANDLENLRDLLHLLAFSKSCSLPQTSGLQKPESLDGVLEASLYSTEVVALSRLQGSLQDILQQLDVSPEC | 0.00079 | 49000 | 16.4 |  |
| Lep-(ss)-P85(2.3), 33 min (ligand, mouse, UniProt P41160 22-167, looked up, one Pluronic P85 chain on a lysine amino group through the DSP (disulfide) linker; position not determined, HIC fraction collected at 33 min, said to contain leptin modified with one P85 chain; also called Lep-(ss)-P85(2.3) purified by HIC (33 minutes); HIC-purified Lep-(ss)-P85(2.3)) VPIQKVQDDTKTLIKTIVTRINDISHTQSVSAKQRVTGLDFIPGLHPILSLSKMDQTLAVYQQVLTSLPSQNVLQIANDLENLRDLLHLLAFSKSCSLPQTSGLQKPESLDGVLEASLYSTEVVALSRLQGSLQDILQQLDVSPEC | 0.000292 | 311000 | 1.21 |  |
| Leptin-POx conjugate (ligand, UniProt P41160 22-167, looked up, P(MeOx50-b-BuOx20) poly(2-oxazoline) chains on amino groups through the DSP linker; modification degree 6.0 per leptin monomer by TNBS assay, SEC-purified mixture of forms with different numbers of POx chains, with some unmodified monomer and dimer; also called leptin-P(MeOx-b-BuOx); leptipox) VPIQKVQDDTKTLIKTIVTRINDISHTQSVSAKQRVTGLDFIPGLHPILSLSKMDQTLAVYQQVLTSLPSQNVLQIANDLENLRDLLHLLAFSKSCSLPQTSGLQKPESLDGVLEASLYSTEVVALSRLQGSLQDILQQLDVSPEC |  |  |  | Ka [2]: 1.8e+07 M⁻¹; Kd [2]: 56 nM; koff [2]: 0.00073 s⁻¹; kon [2]: 13000 M⁻¹ s⁻¹ |
| Lep-(ss)-P85(2.1) reduced (ligand, mouse, UniProt P41160 22-167, looked up, Pluronic P85 chains on lysine amino groups through the DSP linker, partly cleaved by 6 mM L-glutathione, Lep-(ss)-P85(2.1) dialysed against 6 mM L-glutathione in PBS with 20% ethanol; also called reduced form of Lep-(ss)-P85(2.1)) VPIQKVQDDTKTLIKTIVTRINDISHTQSVSAKQRVTGLDFIPGLHPILSLSKMDQTLAVYQQVLTSLPSQNVLQIANDLENLRDLLHLLAFSKSCSLPQTSGLQKPESLDGVLEASLYSTEVVALSRLQGSLQDILQQLDVSPEC | 0.000407 | 195000 | 2.09 |  |
